Measured values taken from patent US20220363781A1.
Read-outs that look alike come from different tables or passages of the source.

Assays:
[1] = molecular target: human TSLP-His (human) (UniProt Q969D9); assay: ELISA, human TSLP-His coated, antibody titrated, anti-human Fc-HRP
[2] = molecular target: human TSLP-His (human) (UniProt Q969D9); assay: BLI (Fortebio), antibody on ProA sensor, human TSLP titrated, 1:1 model
[3] = molecular target: human TSLP-His (human) (UniProt Q969D9); assay: cell-based or functional assay
[4] = molecular target: human TSLP-His (human) (UniProt Q969D9); assay: cell-based or functional assay; remark: listed apart in the source
[5] = molecular target: human TSLP-His (human) (UniProt Q969D9); assay: ELISA, human TSLP-His coated on the plate, serially diluted antibody, HRP goat anti-human Fc, absorbance at 450 nm
[6] = molecular target: monkey TSLP-His (cynomolgus monkey, Macaca fascicularis) (cynomolgus monkey (Macaca fascicularis)); assay: BLI (Fortebio), antibody on ProA sensor, monkey TSLP 1.5625-100 nM, 1:1 model
[7] = molecular target: FcRn (biotin-labeled); assay: BLI (Fortebio), biotin-FcRn on SA sensor, antibody 1.5625-200 nM, pH 6.0, 1:1 model
[8] = molecular target: human TSLP-His (human) (UniProt Q969D9); assay: competitive ELISA, hIL7Rα-hTSLPR-hFc coated, hTSLP-His plus titrated antibody, anti-His-HRP
[9] = molecular target: human TSLP-His (human) (UniProt Q969D9); assay: ELISA, human TSLP-His coated, antibody titrated
[10] = molecular target: monkey TSLP-His (cynomolgus monkey, Macaca fascicularis) (cynomolgus monkey (Macaca fascicularis)); assay: ELISA, monkey TSLP-His coated, antibody titrated, anti-human Fc-HRP
[11] = molecular target: human TSLP-His (human) (UniProt Q969D9); assay: BLI (Fortebio), antibody on ProA sensor, human TSLP 1.5625-100 nM, 1:1 model
[12] = molecular target: monkey TSLP-His (cynomolgus monkey, Macaca fascicularis) (cynomolgus monkey (Macaca fascicularis)); assay: ELISA, monkey TSLP-His coated, antibody titrated

Chain of monkey TSLP-His (cynomolgus monkey, Macaca fascicularis) (cynomolgus monkey (Macaca fascicularis)) (chain, as listed by the source): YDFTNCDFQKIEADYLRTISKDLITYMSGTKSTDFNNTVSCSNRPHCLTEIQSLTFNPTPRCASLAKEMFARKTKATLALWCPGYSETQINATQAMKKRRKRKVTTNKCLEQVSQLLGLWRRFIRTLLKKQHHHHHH
Chain of human TSLP-His (human) (Q969D9 other isoform, or with tags, fused parts or gaps limits assumed): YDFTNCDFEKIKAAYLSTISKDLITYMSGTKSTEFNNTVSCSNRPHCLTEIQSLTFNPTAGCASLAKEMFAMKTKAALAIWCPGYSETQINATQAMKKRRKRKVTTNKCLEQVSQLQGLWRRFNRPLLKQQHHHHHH

An EC50 [1] of 1400 pM, a Kd [2] of 373 pM and an EC50, blocking human TSLP-induced proliferation of Ba/F3-hTSLPR-hIL7Rα cells (CCK8) [3] of 50 pM were found for “Control antibody (control anti-TSLP antibody, chEMBL ID CHEMBL3707229)” in this work. The EC50, inhibition of human TSLP-induced PBMC secretion of MDC [3] was 5.63 pM, the EC50, inhibition of human TSLP-induced PBMC secretion of TARC [3] was 510 pM and the hTSLP EC50, inhibition of the proliferation of Ba/F3-hTSLPR-hIL7Rα cells [3] was 41 pM. The hTSLP EC50, inhibition of the proliferation of Ba/F3-hTSLPR-hIL7Rα cells [4] was 570 pM, the EC50 (read off the curve) [5] was 0.4 µg/mL and the Kd [6] was 1150 pM. The Kd [7] was 11200 pM, the IC50 [8] was 930 pM and the EC50 [9] was 233 pM. For the same substance, the EC50 [10] was 190 pM, the Kd [11] was 800 pM and the EC50 [12] was 336 pM.
